The results in this text go back to patent publication US7217525 (Johns Hopkins, dated 2007).

The target of the experiment is T1, Narp (recombinant, expressed in transfected HEK-293 cells) (Rattus norvegicus (Rat), UniProt P97738 15-432).
T1 sequence: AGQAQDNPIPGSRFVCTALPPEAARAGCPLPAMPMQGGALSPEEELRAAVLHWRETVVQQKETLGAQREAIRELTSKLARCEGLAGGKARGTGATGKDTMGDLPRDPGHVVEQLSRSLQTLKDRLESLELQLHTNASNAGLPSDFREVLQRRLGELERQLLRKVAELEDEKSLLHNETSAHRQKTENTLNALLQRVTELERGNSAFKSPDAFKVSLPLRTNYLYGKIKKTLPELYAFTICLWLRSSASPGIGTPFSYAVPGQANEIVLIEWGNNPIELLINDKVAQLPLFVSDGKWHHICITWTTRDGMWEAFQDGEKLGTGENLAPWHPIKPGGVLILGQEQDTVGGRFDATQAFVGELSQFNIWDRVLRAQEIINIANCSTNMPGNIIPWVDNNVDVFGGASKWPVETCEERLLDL
Nature of the experiment: cell-based or functional assay.

B1: C-terminal myc-tagged version of Narp (designated myc-Narp) (ligand, not shown: small tags and cut ends)
chain: AGQAQDNPIPGSRFVCTALPPEAARAGCPLPAMPMQGGALSPEEELRAAVLHWRETVVQQKETLGAQREAIRELTSKLARCEGLAGGKARGTGATGKDTMGDLPRDPGHVVEQLSRSLQTLKDRLESLELQLHTNASNAGLPSDFREVLQRRLGELERQLLRKVAELEDEKSLLHNETSAHRQKTENTLNALLQRVTELERGNSAFKSPDAFKVSLPLRTNYLYGKIKKTLPELYAFTICLWLRSSASPGIGTPFSYAVPGQANEIVLIEWGNNPIELLINDKVAQLPLFVSDGKWHHICITWTTRDGMWEAFQDGEKLGTGENLAPWHPIKPGGVLILGQEQDTVGGRFDATQAFVGELSQFNIWDRVLRAQEIINIANCSTNMPGNIIPWVDNNVDVFGGASKWPVETCEERLLDL
Consider B1, for which the “increase in intercellular myc-Narp*GluR1 co-clusters when untagged Narp is co-expressed with GluR1 in the apposing 293 cell” value is 2 fold.
